According to the nanobody polyreactivity screen of Harvey et al. (2022):

Test: yeast display, Sf9 membrane polyspecificity reagent, FACS + sequencing; frameworks hold sequencing errors
Method in brief: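 In a synthetic yeast display library (Saccharomyces cerevisiae BJ5465), nanobody expression was induced with galactose for 36–48 hours. FACS gates were set low and high (top ~1%) using anti-HA fluorescence for expression and streptavidin fluorescence for binding of the Sf9 membrane reagent. Each polyreactivity label is drawn from the gate of origin.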

QVKLVESGGGLVQAGGSLRLSCAASGFIFSNNAMGWYRQAPGKEMELVAAITWNGGRTYYADSVKGRFTISRDNAKNTVYLQMNSLKQVDTAVYYCAAGRYYPLFYYWGLGTQVTVSS
polyreactivity (PSR sort gate): high polyreactivity

QVKLVESGGGLVQAGGSLRLSCAASGFTFISNAMGWYRQAPGKERELVAAISSSGGRTYYADSVKGRFTISRDNAKNTVYLQMNSLKPEDTAVYYCNADRSLLYSRKIEYDYWGQGTQVTVSS
polyreactivity (PSR sort gate): low polyreactivity

QVKLVESGGGLVQAGGSLRLSCAASGFTIRSYFIVWNRQAPGKERELVAAITRRGGRTYYADSVKGRFTISRDNAKNTVFLQMNSLKPEDTAVYYCAAGPYLVDVDYWGQGTQVTVSS
polyreactivity (PSR sort gate): high polyreactivity

QVKLVESGGGLVQAGGSLRLSCAASGGIFYFNPMGWYRQEPGKERELVASITWSGGNTYYADSVKGRFTISRDIAKNTVSLQMISLKPEDTAVYYCAAYYVTPIYYYWGQGTQVTVSS
polyreactivity (PSR sort gate): low polyreactivity

QVKLVESGGGLVQAGGSLRLSCAASGIIFYPNALGWYRQAPGKERELVAAITSDGSTYYADSVKGRFTISRDNAKNTVYLQMNSLKPEDTAVYYCGAWDDYGYDYWGQGTQVTVSS
polyreactivity (PSR sort gate): low polyreactivity

QVKLVESGGGLVQAGGSLRLSCAASGITFVLYAMRWYRQAPGKERELVASITWDATDTYYADSVKGRFTISRDNAKNTVYLQMNSLKPEDTAVYYCNAAYFNYWWLEYDYWGQGTQVTVSS
polyreactivity (PSR sort gate): high polyreactivity

QVKLVESGGGLVQAGGSLRLSCAASGLIFIGYAMGWYRPAPGKEMELVASIRGVGSTNYADSVKGRFTISRDNAKNTVYLQMNSLKPEDTAVYYCPNSVDRALYTQTRGDYDYWGQGTQVTVSS
polyreactivity (PSR sort gate): low polyreactivity

QVKLVESGGGLVQAGGSLRLSCAASGNILGYNAMGWYRQEPGKERELVAAITQSGGSTYYADSVKGRFTISRDNAKYSVYLQMTSLKPEDTAVYDCAVDCGPFYDPFGYWGQGTQVTVSS
polyreactivity (PSR sort gate): low polyreactivity

QVKLVESGGGLVQAGGSLRLSCAASGRICGYYAMGWYRQAPGNERELVAAISWSGGSTYYADSVKGRFTISRDNAMNTVYLQRNSLKPEDTAVYYCNARYPNTRKYDYWGQVTQVTVSS
polyreactivity (PSR sort gate): high polyreactivity

QVKLVESGGGLVQAGGSLRLSCAASGRTFGSYAMGRYRQAPGKERELVAAITTDASTNYADSVKGRFTISRDNAKNTIYLQMNSLKPEDTAVYYCAKRNRTYYGYWGQGTQVTVSS
polyreactivity (PSR sort gate): low polyreactivity

QVKLVESGGGLVQAGGSLRLSCAASGRTFYIYAMGWYRQAPGKERELVAAITYGGGRTFYADSVKGRFTISRDNAKNTVYLQMNSRKPEDTAVYYCAATVRGKRSTYDYWGQGTQVTVSS
polyreactivity (PSR sort gate): high polyreactivity

QVKLVESGGGLVQAGGSLRLSCAASGRTFYSYAMGWYRQAPGKERELVAAISAGGSTYYADSVKGRFTISRDNAKNTVYLQMTSLKPEDTAVYYCAAPVRYTYWRYPYDYWGQGTQVTVSS
polyreactivity (PSR sort gate): high polyreactivity

QVKLVESGGGLVQAGGSLRLSCAASGSIFGGNAMGWYRQAPGKEREFVARITKRGGSTDYADSVKGRFTISRDNAKNTVYLQMNSLKPEDTAVYYCATGWTSKVHYRYGYWGQGTQVTVSS
polyreactivity (PSR sort gate): high polyreactivity

QVKLVESGGGLVQAGGSLRLSCAASGSIFPRYAMGWYRQAPGKERELVAAITGSGSSTYYADSVKGRFTISRDNAKNTVYFQMNSLKPEDTAVYYCAARKARPPFPHPFDYYWGQGTQVTVSS
polyreactivity (PSR sort gate): low polyreactivity

QVKLVESGGGLVQAGGSLRLSCAASGSTFLYYGMGWYRQAPGTERELVATITWRGGRTYYADSVKGRFTISRDNAKNTVYLQMNSLKPEDTAVYYCAARVVGSYRKPYPYGLYYWGQGTQVTVSS
polyreactivity (PSR sort gate): high polyreactivity

QVKLVESGGGLVQAGGSLRLSCAASGSTFWGYAMGWYRQEPGKERELVATITTGGSTNYADSVKGRFTISRDNAKNTVYLQMNSLKPEDTAVYYCAKEVDPGSITSYGAGAHFGFDYWGQGTQVTVSS
polyreactivity (PSR sort gate): low polyreactivity

QVKLVESGGGLVQAGGSLRLSCADSGLIFGRNARGWYRQAPGKERELVAAISSSGVRTFYADSVKGRFTISRDNAKNTVYLQMNSLKPEDTAVYYCATRGRVYPTKYSLDEDYWGQGTQVTVSS
polyreactivity (PSR sort gate): high polyreactivity

QVKLVESGGGLVQAGGSLRLSCADSGSIFGGNTMVWYRQAPGKEREFVAAITWGGNTYYADSVKGRFTISRDNAKNTVYLQTNSLKPEDTAVYYCAAGGRPQYWGRYYYWGQGTQVTVSS
polyreactivity (PSR sort gate): high polyreactivity

QVKLVESGGGLVQAGGSLRLSCADSGSIFQRYAMGWYSQKPGKAREFVAAISGRGGSTYYADSVKGRFTISRDNAKNTVYLQMNSLKPEDTAVYYCAADSSRFYGRPRYYYWGQGTQVTVSS
polyreactivity (PSR sort gate): high polyreactivity

QVKLVESGGGLVQAGGSLRLSCAPSGFTFFTYAMGWYRQAPGKERVLVAAITSGGSTNYADSVKGRFTISRDNAKNTVDLQMNSLKPEDTAVYYCAKLAYSDATTVYGYQRSDYWGQGTQVTVSS
polyreactivity (PSR sort gate): low polyreactivity

QVKLVESGGGLVQAGGSLRLSCPASGSIFYRNTMGWYRQEPGKERELVASITSGSSTFYADSVKGRFTISRDNAKNTVYLQMNSLKAEDTAVYYCAKRRGSPGFRFRAGGAYGYWGQGTQVTVSS
polyreactivity (PSR sort gate): low polyreactivity

QVKLVESGGGLVQAGGSLSLSCAASGRIFSYNAMGWYRQAPGKERELVAVISRSDTSTYYADSVKGRFTISRDNAKNTVYLEMNSLKPEDTAVYYCNADGPTYFRYSGYYYWGQGTQVTVSS
polyreactivity (PSR sort gate): low polyreactivity

QVKLVESGGGLVQAGGSLSLSCAATGIIFRFYSMGCYRQAPGKERELVAVITSRSDSTYYADSVKGRFTISRDNAKNTFYLQKNSLKPEDTAVYYCNARYPWYYRYSTYDYWGQGTQVTVSS
polyreactivity (PSR sort gate): high polyreactivity

QVKLVESGGGLVQSGGSLRLTSAASGSTFPRYAMGWYRQAPGKEREFVAVIWSGGSTYYADSVKGRLTISRDNAKNTVYLQMNSLKPEDTAVYYCAAEYHTLSLDSGYATHDYWGQGTQVTVSS
polyreactivity (PSR sort gate): low polyreactivity

QVKLVESGGVLVQAGGSLRLSCAASAFTFRWYSMGWYRQATGKERELVARISWDGGSTYYADSVKGRFTISRDNAKNTVYVQMNSLKPEDTAVYYCAIDWYYLRRNYDYWGQGTQVTLSS
polyreactivity (PSR sort gate): high polyreactivity

QVKLVESVGGLVQAGGSLRFSCAASANTFYYYAMGWYREAPGNDMELVASITWRVGDTYYADSVKGRFTIARDNAKNTVYLQMNSLKPEDTAVYYCAKPRLGRYDSLSYLGDYPGYDYWGQGTQVTVSS
polyreactivity (PSR sort gate): low polyreactivity

QVKLVETGGGLVQAGGSLRLSSAASGTTFVHYDMGWYRQAPGNERELVAAISRSGASTYYADSVKGRFTISRDHAKNTVYLQMNSLKPDDTAVYYCATIKYYGRRFNYWGQGTQVTVSS
polyreactivity (PSR sort gate): high polyreactivity

QVKRVESGGGLVQAGGSLRLSCAASGSTFYDYAMGWYRPAHGKQRELVAAINGNGDSTYYADSVKGRFTISRDNAKNTVYLQMNSLKPEDTAVYYCAAYLGWGYDYWGQGTQVTVSS
polyreactivity (PSR sort gate): low polyreactivity

QVLLQERGGGLVQAGGSLRLSCAASGTISTDIRMGWYRLAPGKEREFVASIDGCSTTYYAYSVKGRFTISRDNAKNTVYLQMNSLKPEDTAMYYCAAREATEFYLYYWGQGTQVTVSS
polyreactivity (PSR sort gate): low polyreactivity

QVLLQESGGGLVEAGGSLRLSCAASGTISTDIRMGWYRLAPGKEREFVASIDGGSTTYYADSVKGRFTISRDNAKNTVYLQMNSLKPQDTAMYYCAAGEATEFYLYYWGQGTQVTVSS
polyreactivity (PSR sort gate): low polyreactivity

QVLLQESGGGLVQAGGSLRLCCAASGYISGDQYMGWYRQAPGKEREFVAGIGNGTNTNYADSVKGRFTTSRDNAKNTVYLQMNSLKPEDTAVYYCAADPSDGSTLAYWGQGTQVTVSS
polyreactivity (PSR sort gate): high polyreactivity

QVLLQESGGGLVQAGGSLRLSCAASGNIFSAGGMGCYRQAPVNERELVAGIGTGTSTNYADSVKGRFTISRDNAKNTVYLQMNSLKPEDTAVYYCAAAYYSGLSHWYWGQGTQVTVSS
polyreactivity (PSR sort gate): low polyreactivity

QVLLQESGGGLVQAGGSLRLSCAASGNIFTAGGMGWYRQAPVNERELVAGIGTGTSTNYADRVKGRFTISRDNAKNTVYLQMNSLKPEDTAVYYCAPAYYSGLSHWYWGQGTQVTVSS
polyreactivity (PSR sort gate): low polyreactivity

QVLLQESGGGLVQAGGSLRLSCAASGSIFLFYTMGWYRQAPVKEREFVAGITLGTTTYNADSVKGRFTISRDNVKNTVYLQMNSLKPEDTAVYYCAVAVGHYTEFWYWGQGTQVTMSS
polyreactivity (PSR sort gate): high polyreactivity

QVLLQESGGGLVQAGGSLRLSCASSGTISTDIRMGWYRLAPGKEREFVASIDGCSTTYYADSVKGRFSISRDNAKNTVYLQMNSLKPEDTSMYYCAAREATEFYLYYWGQGTQVTVSS
polyreactivity (PSR sort gate): low polyreactivity

QVLLQESGGGLVQAGGSLRVSCAASGTISTDIRMGSYRLAPGKEREFVASIDGCSTTYYADSVKGRFTISRDNAKNTVYLQMNSLKPEDTAMYYCAAREATEYYLYYWGQGTQVTVSS
polyreactivity (PSR sort gate): low polyreactivity

QVLLQESGGLVQAGCSLRMSCAASGSISTALSMGWYRQAPGKERELVSTISDGASTNYADSVKGRFTISRVNAKNTVYLQMNSLKPEDTAVYYCARYYFGNFGWGQGTQVTVSS
polyreactivity (PSR sort gate): high polyreactivity

QVLLQESGSGLVQAGGSLRLSCAASGTISTDIRIGLYRLAPRKEREFVASIDGCSTTYYADSVKGRFTISRDNAKNSVYLQMNSLKPEVTAMYYCAAREATEFYLYYWGQGTQVTVSS
polyreactivity (PSR sort gate): low polyreactivity

QVLLQESVGGLVQAGGSLRLGCAASGTISPAYYMGRYQQEPGKVRQFVAAITYGTNTYYADSVKGRFTISRDNAKNTVYLQMNSLKPEDTAVYYCSATAGYNGAHDYWGQGTQVTVSS
polyreactivity (PSR sort gate): low polyreactivity

QVLLVESGGALVQAGGSLRLSCAASGYIFRFYTLRGYRQAPGKERELVAAISAGGSTNSADSVKGRFTISRDNAKNTVYLQMNSLKPEDTAVEYCAARYYSRYYWGQGTQVTVSS
polyreactivity (PSR sort gate): low polyreactivity

QVLLVESGGGLVQAGGSLRLSCAASGAIFRGYVMGWYSQAPGKERELVAAISYSGGATYYADSVKGRFTLSRDNAKNTVYVQMNSLKPEDTAVYYCAAYRYRYPYRLYDYWGQGTQGTVSS
polyreactivity (PSR sort gate): high polyreactivity

QVLLVESGGGLVQAGGSLRLSCAASGRIFDDYAMGWYRQAPGKESELVAAITSGGRTYYADSVKGRFTISRDNAKNTVYLKMHSLKPDDTAVYYCAAQYGWFYEFVYWGQGTPVTVSS
polyreactivity (PSR sort gate): high polyreactivity

QVLLVESGGGLVQAGGSLRLSCAATGSTFIRNAMGWYSQAPGKERELVAVISSGGSTYYADSVKGRFTISREIAKNTVYLQMNSLKPEDTAVYYCPAGDPQKEDYWGQGTQVTVSS
polyreactivity (PSR sort gate): low polyreactivity
